Holding throughout (experiment): cell_activity
For one data set, the system named is FLPe (thermostable FLP). As to conditions: substrate plasmid ad2879, 293 cells.
Another data set deals with FLP recombinase. To be noted: substrate plasmid ad2879, 293 cells; 4.9 in Table 2 with vector control.
The subject of data set [1] is Cre recombinase (bacteriophage P1). As to conditions: Ad2HCRGFP/EBV in HepG2, 72 h post infection, moi 1000.
In data set [2] the test system is Cre-LBD (bacteriophage P1). To be noted: type B provirus pk8-ad4332, +tamoxifen; 4.1 without.
Data set [3] has as its system LBD-Cre-LBD (bacteriophage P1). As to conditions: type B provirus pk8-ad4626, +tamoxifen; 0.05 without.

In the case of FRT site, the activity (mean GFP intensity) with FLPe (thermostable FLP) turned out to be 2.39; in the data set on FLP recombinase it was 0.01.
On to loxP site, for which, in data set [1], the activity (% genomes circularized (or more)) stood at 95. Besides, the activity (arbitrary GFP intensity) in data set [2] is 6; in data set [3] it was 4.2.

These data come from US20070166286.
